Positions count from the first letter of the chain named. In names and notes the source's numbering stands.

The target of assay [1] is T1, rHuman HGF R/c-MET/Fc Chimera, CF (R&D Systems Cat#358-MT/CF) (human, UniProt P08581 25-932).
T1 construct: Bought recombinant protein; also called HGF R/Fc; not shown: Fc of the bought chimera
Briefly: MSD ECL multispot assay, antigen spotted on plate, Fab in solution; blank spot of this row 274.

Assay [2] addresses T2, rHuman P-Cadherin/Fc Chimera, CF (R&D Systems Cat#861-PC) (human, UniProt P22223 108-654).
T2 construct: Bought recombinant protein; not shown: Fc of the bought chimera
The description is as above.

Assay [3] concerns the target T3, Recombinant Human DLL4 (R&D Systems Cat#1506-D4/CF) (human, UniProt Q9NR61 27-524).
T3 construct: Bought recombinant protein; also called delta-like protein 4; rHuman DLL4
The assay is described as above.

The target in assay [4] is T4, rHuman EGF R/Fc Chimera, CF (R&D Systems Cat#344-ER) (human, UniProt P00533 25-645).
T4 construct: Bought recombinant protein; not shown: Fc of the bought chimera
The assay is described as above.

The target in assay [5] is T5, rHuman IGF-1 sR (insulin-like growth factor-1 soluble receptor), CF (R&D Systems Cat#391-GR) (human, UniProt P08069 31-932).
T5 construct: Bought recombinant soluble receptor
Described as above.

Assay [6] concerns the target T6, rHuman ErbB2/Fc Chimera, CF (R&D Systems Cat#1129-ER) (human, UniProt P04626 23-652).
T6 construct: Bought recombinant protein; not shown: Fc of the bought chimera
The assay is described as above.

The target of assay [7] is T1, rHuman HGF R/c-MET/Fc Chimera, CF (R&D …). Kind of assay: MSD ECL multispot assay, antigen spotted on plate, Fab in solution; blank spot of this row 277.
Assay [8] deals with T2, rHuman P-Cadherin/Fc Chimera, CF (R&D …). The description is as above.
The target of assay [9] is T3, Recombinant Human DLL4 (R&D Systems …). Described as above.
Assay [10] has as its target T4, rHuman EGF R/Fc Chimera, CF (R&D …). Described as above.
Assay [11] addresses T5, rHuman IGF-1 sR (insulin-like growth …). The description is as above.
The target in assay [12] is T6, rHuman ErbB2/Fc Chimera, CF (R&D …). The description is as above.
The target in assay [13] is T1, rHuman HGF R/c-MET/Fc Chimera, CF (R&D …). Kind of assay: MSD ECL multispot assay, antigen spotted on plate, Fab in solution; blank spot of this row 282.
The target of assay [14] is T2, rHuman P-Cadherin/Fc Chimera, CF (R&D …). Described as above.
Assay [15] has as its target T3, Recombinant Human DLL4 (R&D Systems …). The description is as above.
Assay [16] deals with T4, rHuman EGF R/Fc Chimera, CF (R&D …). The description is as above.
Assay [17] addresses T5, rHuman IGF-1 sR (insulin-like growth …). Described as above.
Assay [18] concerns the target T6, rHuman ErbB2/Fc Chimera, CF (R&D …). The description is as above.
For assay [19], the target named is T1, rHuman HGF R/c-MET/Fc Chimera, CF (R&D …). Briefly: MSD ECL multispot assay, antigen spotted on plate, Fab in solution; blank spot of this row 255.
Assay [20] has as its target T7, rHuman Erythropoietin R/Fc Chimera, CF (R&D Systems Cat#963-ER) (human, UniProt P19235 25-250).
T7 construct: Bought recombinant protein; also called EPO R; EPO R/Fc; not shown: Fc of the bought chimera
T7 sequence (looked up): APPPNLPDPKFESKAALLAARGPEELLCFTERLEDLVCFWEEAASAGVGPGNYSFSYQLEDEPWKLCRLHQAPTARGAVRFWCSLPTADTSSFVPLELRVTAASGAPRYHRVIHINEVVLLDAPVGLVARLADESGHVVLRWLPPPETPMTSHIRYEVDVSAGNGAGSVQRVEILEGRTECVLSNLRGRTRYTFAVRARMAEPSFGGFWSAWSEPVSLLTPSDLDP
Described as above.

The target in assay [21] is T2, rHuman P-Cadherin/Fc Chimera, CF (R&D …). The assay is described as above.
Assay [22] deals with T8, rHuman CD44/Fc Chimera, CF (R&D Systems Cat#3660-CD) (human, UniProt P16070 21-220).
T8 construct: Bought recombinant protein; not shown: Fc of the bought chimera
The description is as above.

The target in assay [23] is T9, rHuman Notch-1/Fc Chimera, CF (R&D Systems Cat#3647-TK) (human, UniProt P46531 19-526).
T9 construct: Bought recombinant protein; not shown: Fc of the bought chimera
Described as above.

In assay [24] the target is T4, rHuman EGF R/Fc Chimera, CF (R&D …). Described as above.
Assay [25] concerns the target T5, rHuman IGF-1 sR (insulin-like growth …). The assay is described as above.
Assay [26] addresses T6, rHuman ErbB2/Fc Chimera, CF (R&D …). The assay is described as above.
Assay [27] has as its target T1, rHuman HGF R/c-MET/Fc Chimera, CF (R&D …). Kind of assay: MSD ECL multispot assay, antigen spotted on plate, Fab in solution; blank spot of this row 317.
Assay [28] deals with T7, rHuman Erythropoietin R/Fc Chimera, CF …. Described as above.
The target of assay [29] is T2, rHuman P-Cadherin/Fc Chimera, CF (R&D …). The assay is described as above.
In assay [30] the target is T8, rHuman CD44/Fc Chimera, CF (R&D Systems …). The description is as above.
Assay [31] addresses T9, rHuman Notch-1/Fc Chimera, CF (R&D …). The description is as above.
In assay [32] the target is T4, rHuman EGF R/Fc Chimera, CF (R&D …). The description is as above.
In assay [33] the target is T5, rHuman IGF-1 sR (insulin-like growth …). Described as above.
In assay [34] the target is T6, rHuman ErbB2/Fc Chimera, CF (R&D …). The description is as above.

T1 sequence (P08581 25-932, change not shown): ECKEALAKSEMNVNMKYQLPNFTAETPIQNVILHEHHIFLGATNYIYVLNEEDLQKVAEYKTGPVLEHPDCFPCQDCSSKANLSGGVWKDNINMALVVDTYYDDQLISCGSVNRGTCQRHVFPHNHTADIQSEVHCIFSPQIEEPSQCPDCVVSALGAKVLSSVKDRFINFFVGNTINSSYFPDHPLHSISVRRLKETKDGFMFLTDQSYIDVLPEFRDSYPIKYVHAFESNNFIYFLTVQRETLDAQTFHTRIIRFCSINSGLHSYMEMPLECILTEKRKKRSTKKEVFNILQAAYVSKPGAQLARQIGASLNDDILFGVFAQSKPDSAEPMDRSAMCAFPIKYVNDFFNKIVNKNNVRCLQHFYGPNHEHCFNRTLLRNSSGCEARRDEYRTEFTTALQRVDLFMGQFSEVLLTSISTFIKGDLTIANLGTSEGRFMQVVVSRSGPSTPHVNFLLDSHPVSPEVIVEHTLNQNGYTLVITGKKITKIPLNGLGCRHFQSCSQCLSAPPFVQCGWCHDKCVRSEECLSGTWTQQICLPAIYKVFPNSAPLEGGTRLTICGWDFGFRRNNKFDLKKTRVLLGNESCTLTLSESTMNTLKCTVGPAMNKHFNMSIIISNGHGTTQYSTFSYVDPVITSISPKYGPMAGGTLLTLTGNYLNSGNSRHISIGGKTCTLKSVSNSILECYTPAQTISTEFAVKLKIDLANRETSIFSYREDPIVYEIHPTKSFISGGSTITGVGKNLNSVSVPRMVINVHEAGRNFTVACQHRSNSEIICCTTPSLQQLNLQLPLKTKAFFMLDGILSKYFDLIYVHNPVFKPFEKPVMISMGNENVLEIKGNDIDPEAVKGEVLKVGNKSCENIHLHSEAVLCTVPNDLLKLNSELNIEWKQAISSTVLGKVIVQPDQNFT

B1: Fab VH1-46_IGHD6-6*01_IGHJ1*01 S102A/S103P/S104F/H111F (APFF) & L6_IGKJ1*01 (Fab, V domains shown)
VH: QVQLVQSGAEVKKPGASVKVSCKASGYTFTSYYMHWVRQAPGQGLEWMGIINPSGGSTSYAQKFQGRVTMTRDTSTSTVYMELSSLRSEDTAVYYCAREEYAPFSAEYFQFWGQGTLVTVSS
VL: not shown
notes: Fab; also called APFF / parent; H:APFF & L:wt
Turning to B1, the ECL signal in [1] was determined as 339; in [2], 283; in assay [3], 164000; in [4], 266; in assay [5], 305; in [6] it was 236. The ECL signal is 267 in assay [7]; 299 in assay [8]; 165000 in assay [9]; 307 in assay [10]; 221 in [11]; 311 in [12]. For the same molecule, the ECL signal in assay [13] was determined as 321; in [14], 302; in [15], 165000; in assay [16] it was 290; in assay [17], 249; in [18], 259.

B2: Fab VH1-46_IGHD6-6*01_IGHJ1*01 S102A/S103P/S104F/H111F (APFF) & L6_IGKJ1*01 S92Q (Fab, V domains shown)
VH: B1 VH
VL: EIVLTQSPATLSLSPGERATLSCRASQSVSSYLAWYQQKPGQAPRLLIYDASNRATGIPARFSGSGSGTDFTLTISSLEPEDFAVYYCQQRQNWPPWTFGQGTKVEIKR
notes: Fab; also called APFF / S92Q
With B2, the ECL signal was 373 in assay [19]; 330 in assay [20]; 340 in [21]; 312 in [22]; 351 in assay [23]; 332 in assay [24]. Further, the figures for the ECL signal in [25] and in assay [26] were 246 and 282, respectively.

B3: Fab VH1-46_IGHD6-6*01_IGHJ1*01 S102A/S103P/S104F/H111F (APFF) & L6_IGKJ1*01 S92V (Fab, V domains shown)
VH: B1 VH
VL: B2 VL with Q92V
notes: Fab; also called APFF / S92V
As to B3, the ECL signal in assay [27] came to 230; in assay [28], 371; in [29], 373; in [30], 248; in [31], 262; in assay [32], 319. Further, the ECL signal turned out to be 244 in [33] and 188 in [34].
